According to PMC2778949:

Molecular target: Serum Resistance-Associated protein with C-terminal S tag
Assay: pull-down (sup/bound fractions, western blot with α-S tag), quantified
Details: read off a plot

Substance	percent of parent (parent: est. 100)	response (parent: est. 9)
Apolipoprotein L-I, wild type, with C-terminal V5-His6 tag (from UniProt O14791-1) N386T; N387K; N388I; Y389Q	5.5 % binding	
apoL1 truncated mutant NNNY (9 C-terminal amino acids removed, human last four residues NNNY), C-terminal V5-His6 tag (from UniProt O14791-1) N386T; N387K; N388I; Y389Q		9.5 % binding
